Earlier results in patent US20180296542A1, “IMINOSUGARS FOR IMPROVING BONE MINERAL DENSITY IN BONE DISEASE” (Saint Louis University, priority 2015, published 2018).

System: Akp2^−/− mice
Conditions: cited from earlier work

B1: untagged, native human TNSALP: untagged, native human tissue nonspecific alkaline phosphatase used for ERT in Akp2−/− mice (protein, UniProt P05186 18-501, looked up)
Alkaline phosphatase, …: LVPEKEKDPKYWRDQAQETLKYALELQKLNTNVAKNVIMFLGDGMGVSTVTAARILKGQLHHNPGEETRLEMDKFPFVALSKTYNTNAQVPDSAGTATAYLCGVKANEGTVGVSAATERSRCNTTQGNEVTSILRWAKDAGKSVGIVTTTRVNHATPSAAYAHSADRDWYSDNEMPPEALSQGCKDIAYQLMHNIRDIDVIMGGGRKYMYPKNKTDVEYESDEKARGTRLDGLDLVDTWKSFKPRYKHSHFIWNRTELLTLDPHNVDYLLGLFEPGDMQYELNRNNVTDPSLSEMVVVAIQILRKNPKGFFLLVEGGRIDHGHHEGKAKQALHEAVEMDRAIGQAGSLTSSEDTLTVVTADHSHVFTFGGYTPRGNSIFGLAPMLSDTDKKPFTAILYGNGPGYKVVGGERENVSMVDYAHNNYQAQSAVPLRHETHGGEDVAVFSKGPMAHLLHGVHEQNYVPHVMAYAACIGANLGHCAPAS
- Bone findings after 6 months (after 6 months): hypomineralization and abnormal proliferative chondrocytes presented
- Growth and fertility compared to untreated knock-out animals: better growth and normal fertility
- Length of life compared to untreated knock-out animals: longer lives
